According to patent publication US12006519B2, “Polymerase mutants and use with 3′-OH unblocked reversible terminators” (Agilent Technologies, Inc., priority 2021, dated 2024):
Entries after “also recorded” stand apart in the source; their conditions may differ.

Legend:
Format in all cases: biochemical
[1] = system: Lightning Terminator-A (LTA); test: Plate-based single-base extension assay, incorporation of LTA
From the text: This example used saturation mutagenesis at positions 486 and 494 in Pfu D141A/E143A to create additional mutant polymerases. Bacterial extracts were screened in a plate-based single-base extension assay employing Lightning Terminator-A (LTA). Positive clones producing the highest fluorescent signals were sequenced to identify the amino acid replacement. […] Selected lysates, based on screening results, were submitted for sequencing, and an amino acid identification was made based on the selections.
FIG. 3 illustrates the saturation of position 486 in a Pfu polymerase. The QuikChange kit was used with degenerate NDT codon primers to create a library of Pfu A486 mutants. A NDT codon comprises an A, C, G, or T at the first position, an A, G, or T at the second position, and a T at the third position, thereby introducing variability into the primer. The 12 possible NDT codons represent 12 amino acids (Phe, Leu, Ile, Val, Tyr, His, Asn, Asp, Cys, Arg, Ser, and Gly). Heat-clarified extracts were prepared from 32 randomly selected colonies. Extracts were screened for incorporation of LTA in a microtiter plate assay employing an immobilized dsDNA substrate. […]
In this example, additional mutant polymerases were derived from Pfu polymerase. […] After washing and UV cleavage (to minimize dye quenching effects), plates were read and fluorescent signals compared to Pfu controls. […]

LTA-2 = test: Template-independent incorporation of LTA-2, LTU-2, LTG-2, LTC-2 to priming strands
Protocol: The template-independent DNA synthesis reactions employed 7.5 U TdT (Promega) or 180 nM (3×over primer) Pfu26 (D141A/E143A/A486L/Y546H/K477W/L409Y) or Pfu48 (D141A/E143A/A486R/Y546H/K477W/L409Y). Varying concentrations of dATP were added to 2 μM (TdT) or 60 nM (Pfu) T7 FOR primer (6′Fam […]) (SEQ ID NO:6) in duplicate reactions containing 1×TdT buffer with CoCl2(Promega) or 1×ThermoPol buffer (NEB). Reactions were incubated for 30 min. at 37° C. (TdT) or 60° C. (Pfu), and then inactivated with heat (TdT; 10 min. at 70° C.) or EDTA (1 ul 500 uM EDTA). Reaction products were exposed to UV using a Stratalinker (15-watt bulbs, […], 10 min). Reactions were diluted in water (TdT, 1:333; Pfu, 1:10) and 1 μl (TdT) or 0.5 μl (Pfu) aliquots were brought up to 10 μl with HiDI/LIZ 120 Size Standard. Products were heated at 95° C. for 5 min., cooled on ice for 2 min., and then analyzed on an ABI 3500 capillary electrophoresis system ([…] capillary, filter set #5, assay=GE5 LIZ120).
In this example, primer extension was carried out with LTA-2 (FIG. 1F) as a Rp+Sp racemic mixture of α-thiotriphosphate, using the conditions described in Example 7.
In further experiments, single-base extension reactions (10 ul) were performed with an equimolar mixture (3 uM each) of two single-stranded oligommcleotides:
Both were labeled with Fam but distinguishable by their lengths using capillary electrophoresis. Primer extension reactions were performed using the following three Pfu mutants at a concentration of 18 nM polymerase: • Pfu10: Pfu polymerase with D141A/E143A/A486L/Y546H/K477W mutations (SEQ ID NO:2) • Pfu26: Pfu polymerase with D141A/E143A/A486L/Y546H/K477W/L409Y mutations (SEQ ID NO:4) • Pfu48: Pfu polymerase with D141A/E143A/A486R/Y546H/K477W/L409Y mutations (SEQ ID NO:5) The extension reactions also employed individual αS-modified LTs in Rp+Sp racemic mixture (namely, LTA-2, LTU-2, LTG-2, and LTC-2) at final concentrations of 5 uM. LTU-2, LTG-2, and LTC-2 are all C7 or C5-hydroxymethyl-a-tert-butyl-2-nitrobenzyl modified reversible terminators like LTA-2, with uracil, guanine, and cytosine in place of adenine. […] Reactions were incubated, stopped, UV-treated, and analyzed as described in Example 7.
(§1) Primer extensions were carried out in duplicate 25 ul reactions containing 7.5 U calf thymus TdT, 1×Promega TdT buffer (with CoCl2), varying concentrations of LTA-1 (100 uM, 50 uM, 10 uM, 5 uM, or 1 uM), and either 2 uM (FIG. 11A to 11C) or 80 nM (FIG. 11D to 11F) of a priming strand (Fam-labeled T7 F primer (6Fam […]), SEQ ID NO:8). Controls were performed without the addition of a polymerase. Primer extensions were also carried out in reactions containing the Pfu26 mutant polymerase, 60 nM of the priming strand, and various concentrations (10 μM or 5 μM or 1 μM) of LTA-1 or LTA-2.

LTA-1 = test: Template-independent incorporation of LTA-1 to a priming strand
Protocol: This example tested the addition of a 3′-OH unblocked reversible terminator (LTA-1, shown in FIG. 1E, or LTA-2, shown in FIG. 1F) to the 3′ end of a single-stranded priming strand. The extension reaction was performed with 2 uM or 80 nM of a priming strand and varying concentrations (100/50/10/5/1 μM) of the reversible terminator. The performance of the Pfu26 polymerase was compared to TdT polymerase.
as §1
Reactions were incubated at 37° C. for 30 min., and then heat-killed for 10 min. at 70° C. Reaction products were split in half, and one-half was treated with UV as described in Example 7. Reactions were then diluted 1:333 (2 uM primer) or 1:13 (80 nM primer) in water, and 0.5 ul portions were analyzed by capillary electrophoresis using the conditions provided in Example 7.

B1: A486R: Pfu D141A/E143A with A486R (protein)
chain: MILDVDYITEEGKPVIRLFKKENGKFKIEHDRTFRPYIYALLRDDSKIEEVKKITGERHGKIVRIVDVEKVEKKFLGKPITVWKLYLEHPQDVPTIREKVREHPAVVDIFEYDIPFAKRYLIDKGLIPMEGEEELKILAFAIATLYHEGEEFGKGPIIMISYADENEAKVITWKNIDLPYVEVVSSEREMIKRFLRIIREKDPDIIVTYNGDSFDFPYLAKRAEKLGIKLTIGRDGSEPKMQRIGDMTAVEVKGRIHFDLYHVITRTINLPTYTLEAVYEAIFGKPKEKVYADEIAKAWESGENLERVAKYSMEDAKATYELGKEFLPMEIQLSRLVGQPLWDVSRSSTGNLVEWFLLRKAYERNEVAPNKPSEEEYQRRLRESYTGGFVKEPEKGLWENIVYLDFRAYYPSIIITHNVSPDTLNLEGCKNYDIAPQVGHKFCKDIPGFIPSLLGHLLEERQKIKTKMKETQDPIEWILLDYRQKRIKLLANSFYGYYGYAKARWYCKECAESVTAWGRKYIELVWKELEEKFGFKVLYIDTDGLHATIPGGESEEIKKKALEFVKYINSKLPGLLELEYEGFYKRGFFVTKKRYAVIDEEGKVITRGLEIVRRDWSEIAKETQARVLETILKHGDVEEAVRIVKEVIQKLANYEIPPEKLAIYEQITRPLHEYKAIGPHVAVAKKLAAKGVKIKPGMVIGYIVLRGDGPISNRAILAEEYDPKKHKYDAEYYIENQVLPAVLRILEGFGYRKEDLRYQKTRQVGLTSWLNIKKS
modifications: Mutant of Pyrococcus furiosus Polymerase
[1]; Example 5, saturation mutagenesis in Pfu D141A/E143A, bacterial extracts, LTA
  Incorporation of Lightning Terminators (in words): improve incorporation of Lightning Terminators
[1]; Example 6, LTA and/or LTC
  Incorporation signals compared to the Pfu A486L control (Pfu10): superior incorporation signals

B2: Pfu48: Pfu D141A/E143A/A486R/Y546H/K477W/L409Y, SEQ ID NO:5 (protein)
chain: MILDVDYITEEGKPVIRLFKKENGKFKIEHDRTFRPYIYALLRDDSKIEEVKKITGERHGKIVRIVDVEKVEKKFLGKPITVWKLYLEHPQDVPTIREKVREHPAVVDIFEYDIPFAKRYLIDKGLIPMEGEEELKILAFAIATLYHEGEEFGKGPIIMISYADENEAKVITWKNIDLPYVEVVSSEREMIKRFLRIIREKDPDIIVTYNGDSFDFPYLAKRAEKLGIKLTIGRDGSEPKMQRIGDMTAVEVKGRIHFDLYHVITRTINLPTYTLEAVYEAIFGKPKEKVYADEIAKAWESGENLERVAKYSMEDAKATYELGKEFLPMEIQLSRLVGQPLWDVSRSSTGNLVEWFLLRKAYERNEVAPNKPSEEEYQRRLRESYTGGFVKEPEKGLWENIVYLDFRAYYPSIIITHNVSPDTLNLEGCKNYDIAPQVGHKFCKDIPGFIPSLLGHLLEERQKIKTKMKETQDPIEWILLDYRQKRIKLLANSFYGYYGYAKARWYCKECAESVTAWGRKYIELVWKELEEKFGFKVLYIDTDGLHATIPGGESEEIKKKALEFVKYINSKLPGLLELEYEGFYKRGFFVTKKRYAVIDEEGKVITRGLEIVRRDWSEIAKETQARVLETILKHGDVEEAVRIVKEVIQKLANYEIPPEKLAIYEQITRPLHEYKAIGPHVAVAKKLAAKGVKIKPGMVIGYIVLRGDGPISNRAILAEEYDPKKHKYDAEYYIENQVLPAVLRILEGFGYRKEDLRYQKTRQVGLTSWLNIKKS
modifications: Mutant of Pyrococcus furiosus Polymerase
LTA-2; 18 nM polymerase, 5 uM terminators, CE2 and T7 oligonucleotides
  Template-independent incorporation of LTA-2, LTU-2, LTG-2 and LTC-2 (in words): superior to Calf thymus Terminal Transferase (TdT)

B3: TdT: commercially available preparation of calf thymus terminal deoxynucleotidyl transferase (Promega) (protein, UniProt P06526 1-509, looked up)
DNA nucleotidylexotransferase: MDPLCTASSGPRKKRPRQVGASMASPPHDIKFQNLVLFILEKKMGTTRRNFLMELARRKGFRVENELSDSVTHIVAENNSGSEVLEWLQVQNIRASSQLELLDVSWLIESMGAGKPVEITGKHQLVVRTDYSATPNPGFQKTPPLAVKKISQYACQRKTTLNNYNHIFTDAFEILAENSEFKENEVSYVTFMRAASVLKSLPFTIISMKDTEGIPCLGDKVKCIIEEIIEDGESSEVKAVLNDERYQSFKLFTSVFGVGLKTSEKWFRMGFRSLSKIMSDKTLKFTKMQKAGFLYYEDLVSCVTRAEAEAVGVLVKEAVWAFLPDAFVTMTGGFRRGKKIGHDVDFLITSPGSAEDEEQLLPKVINLWEKKGLLLYYDLVESTFEKFKLPSRQVDTLDHFQKCFLILKLHHQRVDSSKSNQQEGKTWKAIRVDLVMCPYENRAFALLGWTGSRQFERDIRRYATHERKMMLDNHALYDKTKRVFLKAESEEEIFAHLGLDYIEPWERNA
LTA-2; single-stranded priming strand
  Template-independent incorporation of LTA-2 (in words): did not incorporate the LTA-2 terminator as efficiently as dATP; also recorded: failed to incorporate LTA-2
LTA-1
  Template-independent incorporation of LTA-1 (in words): incorporates LTA-1 much more efficiently than the more highly substituted LTA-2
  Termination efficiency with LTA-1: poor
LTA-1; LTA-1, 80 nM primer
  Bases incorporated in a single synthesis cycle: > 3 bases
LTA-1; LTA-1, 2 uM primer
  Bases incorporated in a single synthesis cycle: 3 bases
